Laboratory results: article PMC9482650, “Quantitative fragmentomics allow affinity mapping of interactomes” (Nature Communications, 2022)

T1: SYNJ2BP, P57105
T1 sequence (P57105 8-110, limits assumed, looked up): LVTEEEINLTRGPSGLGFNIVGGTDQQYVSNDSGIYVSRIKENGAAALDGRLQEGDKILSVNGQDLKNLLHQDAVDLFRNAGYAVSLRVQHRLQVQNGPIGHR

T2: GRIP1_3, Q9Y3R0
T2 sequence (Q9Y3R0 247-346, limits assumed, looked up): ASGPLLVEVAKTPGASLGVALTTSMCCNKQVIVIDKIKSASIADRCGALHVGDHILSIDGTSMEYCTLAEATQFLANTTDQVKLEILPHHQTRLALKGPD

T3: GRIP1_5, Q9Y3R0
T3 sequence (Q9Y3R0 568-668, limits assumed, looked up): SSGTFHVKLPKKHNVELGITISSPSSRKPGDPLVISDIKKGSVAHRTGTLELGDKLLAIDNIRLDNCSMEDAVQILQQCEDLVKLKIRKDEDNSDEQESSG

T4: MPP2, Q14168
T4 sequence (Q14168 180-250, limits assumed, looked up): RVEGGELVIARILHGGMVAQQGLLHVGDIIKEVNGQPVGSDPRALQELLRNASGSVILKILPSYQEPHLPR

T5: DLG3_2, Q92796
T5 sequence (Q92796 221-321, limits assumed, looked up): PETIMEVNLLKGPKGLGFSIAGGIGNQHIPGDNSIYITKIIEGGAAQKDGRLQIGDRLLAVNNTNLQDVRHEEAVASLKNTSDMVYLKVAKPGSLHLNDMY

T6: APBA1_2, Q02410
T6 sequence (Q02410 742-832, limits assumed, looked up): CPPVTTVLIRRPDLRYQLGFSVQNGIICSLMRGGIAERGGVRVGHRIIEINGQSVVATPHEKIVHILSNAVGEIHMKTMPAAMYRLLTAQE

T7: RHPN1, Q8TCX5
T7 sequence (Q8TCX5 508-602, limits assumed, looked up): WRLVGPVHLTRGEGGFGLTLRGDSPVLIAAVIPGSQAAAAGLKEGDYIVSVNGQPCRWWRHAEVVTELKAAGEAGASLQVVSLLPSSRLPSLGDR

T8: APBA1_1, Q02410
T8 sequence (Q02410 651-752, limits assumed, looked up): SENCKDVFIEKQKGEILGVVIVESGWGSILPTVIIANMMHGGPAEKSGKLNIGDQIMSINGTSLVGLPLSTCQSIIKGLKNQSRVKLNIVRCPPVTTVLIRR

T9: LNX2_2, Q8N448
T9 sequence (Q8N448 334-432, limits assumed, looked up): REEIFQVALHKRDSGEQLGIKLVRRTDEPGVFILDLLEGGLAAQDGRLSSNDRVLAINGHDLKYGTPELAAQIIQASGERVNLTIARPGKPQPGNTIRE

T10: NHERF3_1, Q5T2W1
T10 sequence (Q5T2W1 4-100, limits assumed, looked up): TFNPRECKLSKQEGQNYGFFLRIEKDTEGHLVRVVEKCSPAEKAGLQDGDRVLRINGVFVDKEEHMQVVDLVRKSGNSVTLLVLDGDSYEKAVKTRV

T11: APBA2_1, Q99767
T11 sequence (Q99767 563-664, limits assumed, looked up): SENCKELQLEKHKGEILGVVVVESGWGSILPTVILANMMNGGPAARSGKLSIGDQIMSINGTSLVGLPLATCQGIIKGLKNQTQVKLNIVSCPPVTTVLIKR

T12: NHERF3_3, Q5T2W1
T12 sequence (Q5T2W1 238-333, limits assumed, looked up): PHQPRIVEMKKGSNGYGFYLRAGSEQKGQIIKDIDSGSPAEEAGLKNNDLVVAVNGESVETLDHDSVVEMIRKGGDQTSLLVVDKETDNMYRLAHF

B1: FCHSD2, O94868 (peptide)
chain: KIEDVEITLV
B2: NPSR1, Q6W5P4 (peptide)
chain: MQILSKPEFI

Biological target: GRIP2_5, Q9C0E4
Assay: holdup assay
Set-up: key: below the threshold = too weak to quantify, mostly under pKd 3.1 to 4
Details: plain residues with an end cap or a label only (N-terminal biotin on a linker: ado-ado)

Chain of GRIP2_5, Q9C0E4 (Q9C0E4 544-642): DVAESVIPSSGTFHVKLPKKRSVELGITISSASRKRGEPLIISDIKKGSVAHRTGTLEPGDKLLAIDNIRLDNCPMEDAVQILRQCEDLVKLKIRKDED

Binder | pKd
B1 | below the threshold
B2 | below the threshold

Biological target: T1, SYNJ2BP, P57105
Assay: holdup assay
Set-up: key: below the threshold = too weak to quantify, mostly under pKd 3.1 to 4
Details: plain residues with an end cap or a label only (N-terminal biotin on a linker: ado-ado)

Binder | pKd
B1 | 3.82
B2 | below the threshold

Biological target: T2, GRIP1_3, Q9Y3R0
Assay: holdup assay
Set-up: key: below the threshold = too weak to quantify, mostly under pKd 3.1 to 4
Details: plain residues with an end cap or a label only (N-terminal biotin on a linker: ado-ado)

Binder | pKd
B1 | below the threshold
B2 | below the threshold

Biological target: NOS1, P29475
Assay: holdup assay
Set-up: key: below the threshold = too weak to quantify, mostly under pKd 3.1 to 4
Details: plain residues with an end cap or a label only (N-terminal biotin on a linker: ado-ado)

Chain of NOS1, P29475 (P29475 9-101): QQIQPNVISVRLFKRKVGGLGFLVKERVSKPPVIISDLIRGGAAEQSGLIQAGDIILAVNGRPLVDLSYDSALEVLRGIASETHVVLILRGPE

Binder | pKd
B1 | 3.8
B2 | 3.84

Biological target: T3, GRIP1_5, Q9Y3R0
Assay: holdup assay
Set-up: key: below the threshold = too weak to quantify, mostly under pKd 3.1 to 4
Details: plain residues with an end cap or a label only (N-terminal biotin on a linker: ado-ado)

Binder | pKd
B1 | below the threshold
B2 | below the threshold

Biological target: PDLIM1, O00151
Assay: holdup assay
Set-up: key: below the threshold = too weak to quantify, mostly under pKd 3.1 to 4
Details: plain residues with an end cap or a label only (N-terminal biotin on a linker: ado-ado)

Chain of PDLIM1, O00151 (O00151 1-87): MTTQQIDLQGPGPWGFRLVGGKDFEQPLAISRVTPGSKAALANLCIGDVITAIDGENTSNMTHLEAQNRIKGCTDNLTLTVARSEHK

Binder | pKd
B1 | below the threshold
B2 | below the threshold

Biological target: T4, MPP2, Q14168
Assay: holdup assay
Set-up: key: below the threshold = too weak to quantify, mostly under pKd 3.1 to 4
Details: plain residues with an end cap or a label only (N-terminal biotin on a linker: ado-ado)

Binder | pKd
B1 | below the threshold
B2 | below the threshold

Biological target: MAGI1_1, Q96QZ7
Assay: holdup assay
Set-up: key: below the threshold = too weak to quantify, mostly under pKd 3.1 to 4
Details: plain residues with an end cap or a label only (N-terminal biotin on a linker: ado-ado)

Chain of MAGI1_1, Q96QZ7 (Q96QZ7 1-106): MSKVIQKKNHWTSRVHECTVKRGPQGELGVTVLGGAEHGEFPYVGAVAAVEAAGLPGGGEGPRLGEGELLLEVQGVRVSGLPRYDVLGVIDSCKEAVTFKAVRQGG

Binder | pKd
B1 | below the threshold
B2 | below the threshold

Biological target: FRMPD3, Q5JV73
Assay: holdup assay
Set-up: key: below the threshold = too weak to quantify, mostly under pKd 3.1 to 4
Details: plain residues with an end cap or a label only (N-terminal biotin on a linker: ado-ado)

Chain of FRMPD3, Q5JV73 (Q5JV73 12-100): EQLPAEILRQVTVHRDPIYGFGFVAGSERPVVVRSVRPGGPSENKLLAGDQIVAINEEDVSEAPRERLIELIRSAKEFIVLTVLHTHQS

Binder | pKd
B1 | below the threshold
B2 | below the threshold

Biological target: GRID2IP_2, A4D2P6
Assay: holdup assay
Set-up: key: below the threshold = too weak to quantify, mostly under pKd 3.1 to 4
Details: plain residues with an end cap or a label only (N-terminal biotin on a linker: ado-ado)

Chain of GRID2IP_2, A4D2P6 (A4D2P6 272-370): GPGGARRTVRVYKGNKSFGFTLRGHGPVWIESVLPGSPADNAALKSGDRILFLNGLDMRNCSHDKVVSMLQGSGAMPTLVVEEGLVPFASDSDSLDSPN

Binder | pKd
B1 | 4.63
B2 | below the threshold

Biological target: T5, DLG3_2, Q92796
Assay: holdup assay
Set-up: key: below the threshold = too weak to quantify, mostly under pKd 3.1 to 4
Details: plain residues with an end cap or a label only (N-terminal biotin on a linker: ado-ado)

Binder | pKd
B1 | 3.53
B2 | 4.18

Biological target: HTRA1, Q92743
Assay: holdup assay
Set-up: key: below the threshold = too weak to quantify, mostly under pKd 3.1 to 4
Details: plain residues with an end cap or a label only (N-terminal biotin on a linker: ado-ado)

Chain of HTRA1, Q92743 (Q92743 360-477): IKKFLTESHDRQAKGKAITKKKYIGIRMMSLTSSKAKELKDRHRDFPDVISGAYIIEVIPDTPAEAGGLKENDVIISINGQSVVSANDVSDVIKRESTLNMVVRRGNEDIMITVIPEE

Binder | pKd
B1 | 5.5
B2 | 4.15

Biological target: T6, APBA1_2, Q02410
Assay: holdup assay
Set-up: key: below the threshold = too weak to quantify, mostly under pKd 3.1 to 4
Details: plain residues with an end cap or a label only (N-terminal biotin on a linker: ado-ado)

Binder | pKd
B1 | 4.07
B2 | 4.24

Biological target: T7, RHPN1, Q8TCX5
Assay: holdup assay
Set-up: key: below the threshold = too weak to quantify, mostly under pKd 3.1 to 4
Details: plain residues with an end cap or a label only (N-terminal biotin on a linker: ado-ado)

Binder | pKd
B1 | 4.76
B2 | below the threshold

Biological target: IL16_3, Q14005
Assay: holdup assay
Set-up: key: below the threshold = too weak to quantify, mostly under pKd 3.1 to 4
Details: plain residues with an end cap or a label only (N-terminal biotin on a linker: ado-ado)

Chain of IL16_3, Q14005 (Q14005 1107-1207): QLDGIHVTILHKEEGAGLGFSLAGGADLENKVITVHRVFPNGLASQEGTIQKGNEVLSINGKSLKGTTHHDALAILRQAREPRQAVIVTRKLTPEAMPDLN

Binder | pKd
B1 | below the threshold
B2 | below the threshold

Biological target: T8, APBA1_1, Q02410
Assay: holdup assay
Set-up: key: below the threshold = too weak to quantify, mostly under pKd 3.1 to 4
Details: plain residues with an end cap or a label only (N-terminal biotin on a linker: ado-ado)

Binder | pKd
B1 | below the threshold
B2 | 3.88

Biological target: T9, LNX2_2, Q8N448
Assay: holdup assay
Set-up: key: below the threshold = too weak to quantify, mostly under pKd 3.1 to 4
Details: plain residues with an end cap or a label only (N-terminal biotin on a linker: ado-ado)

Binder | pKd
B1 | 5.6
B2 | below the threshold

Biological target: GRIP2_4, Q9C0E4
Assay: holdup assay
Set-up: key: below the threshold = too weak to quantify, mostly under pKd 3.1 to 4
Details: plain residues with an end cap or a label only (N-terminal biotin on a linker: ado-ado)

Chain of GRIP2_4, Q9C0E4 (Q9C0E4 446-548): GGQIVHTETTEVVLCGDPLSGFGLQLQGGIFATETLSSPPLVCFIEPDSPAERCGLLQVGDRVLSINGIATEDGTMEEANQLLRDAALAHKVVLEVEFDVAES

Binder | pKd
B1 | below the threshold
B2 | below the threshold

Biological target: DLG4_1, P78352
Assay: holdup assay
Set-up: key: below the threshold = too weak to quantify, mostly under pKd 3.1 to 4
Details: plain residues with an end cap or a label only (N-terminal biotin on a linker: ado-ado)

Chain of DLG4_1, P78352 (P78352 62-152): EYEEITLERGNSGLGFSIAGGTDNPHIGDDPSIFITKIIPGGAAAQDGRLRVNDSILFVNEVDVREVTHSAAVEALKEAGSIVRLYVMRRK

Binder | pKd
B1 | 3.89
B2 | below the threshold

Biological target: T10, NHERF3_1, Q5T2W1
Assay: holdup assay
Set-up: key: below the threshold = too weak to quantify, mostly under pKd 3.1 to 4
Details: plain residues with an end cap or a label only (N-terminal biotin on a linker: ado-ado)

Binder | pKd
B1 | 4.13
B2 | below the threshold

Biological target: DLG2_3, Q15700
Assay: holdup assay
Set-up: key: below the threshold = too weak to quantify, mostly under pKd 3.1 to 4
Details: plain residues with an end cap or a label only (N-terminal biotin on a linker: ado-ado)

Binder | pKd
B1 | below the threshold
B2 | 3.53

Biological target: PICK1, Q9NRD5
Assay: holdup assay
Set-up: key: below the threshold = too weak to quantify, mostly under pKd 3.1 to 4
Details: plain residues with an end cap or a label only (N-terminal biotin on a linker: ado-ado)

Chain of PICK1, Q9NRD5 (Q9NRD5 17-115): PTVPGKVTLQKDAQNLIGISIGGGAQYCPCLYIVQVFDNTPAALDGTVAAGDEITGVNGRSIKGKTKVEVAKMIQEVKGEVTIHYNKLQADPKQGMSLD

Binder | pKd
B1 | below the threshold
B2 | 4.08

Biological target: T11, APBA2_1, Q99767
Assay: holdup assay
Set-up: key: below the threshold = too weak to quantify, mostly under pKd 3.1 to 4
Details: plain residues with an end cap or a label only (N-terminal biotin on a linker: ado-ado)

Binder | pKd
B1 | below the threshold
B2 | 3.74

Biological target: Inadl_8, Q8NI35
Assay: holdup assay
Set-up: key: below the threshold = too weak to quantify, mostly under pKd 3.1 to 4
Details: plain residues with an end cap or a label only (N-terminal biotin on a linker: ado-ado)

Chain of Inadl_8, Q8NI35 (Q8NI35 1425-1530): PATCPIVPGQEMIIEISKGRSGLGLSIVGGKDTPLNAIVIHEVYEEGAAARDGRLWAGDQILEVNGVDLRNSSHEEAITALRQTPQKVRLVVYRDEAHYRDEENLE

Binder | pKd
B1 | 3.99
B2 | below the threshold

Biological target: T12, NHERF3_3, Q5T2W1
Assay: holdup assay
Set-up: key: below the threshold = too weak to quantify, mostly under pKd 3.1 to 4
Details: plain residues with an end cap or a label only (N-terminal biotin on a linker: ado-ado)

Binder | pKd
B1 | below the threshold
B2 | below the threshold

Biological target: DLG4_2, P78352
Assay: holdup assay
Set-up: key: below the threshold = too weak to quantify, mostly under pKd 3.1 to 4
Details: plain residues with an end cap or a label only (N-terminal biotin on a linker: ado-ado)

Chain of DLG4_2, P78352 (P78352 155-259): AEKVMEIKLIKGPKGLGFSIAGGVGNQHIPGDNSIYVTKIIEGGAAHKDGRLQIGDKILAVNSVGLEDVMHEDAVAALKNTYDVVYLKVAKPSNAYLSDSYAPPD

Binder | pKd
B1 | 4.2
B2 | below the threshold
